Source: US20100278834A1

B1: FLD132 (antibody, V domains shown)
VH: EVQLVQSGAELKMPGESLKISCKASGYTFTNYWIGWVRQTPGKGLEWMGIIFPPDSQTSYSPSFQGQVTFSVDNSISVAYIQWSSLKASDTAIYYCARSGIFDWSAPLVEAFDIWGQGTVVTVSS
VL: DIQLTQSPSFLSASVGDGVTITCRASQDIYIYLAWYQQKPGKAPKLLIYAASTLQGGVPSRFSGSGSGTEFTLTINNLQPEDFATYFCQQLNGYPLTFGGGTKVEIK
B2: FLD93 (antibody, V domains shown)
VH: WWQLVQSGAEVKKPGSSVKVSCKASGGTFSSYDISWVRQAPGQGLEWMGGIIPIYGTANYAQKFQGRVTITADESTSTAYMELSSLRSEDTAVYYCARAGGDSSGYYGALGRFFQHWGQGTLVTVSS
VL: VIWMTQSPSLLSASTGDRVTISCRMSQGISSYLAWYQQKPGKAPELLIHTAYTLKSGVPSRFSGSGSGKDFTLTISGLQSEDFATYYCQQYYSFPYTFGQGTKVEIK
B3: FLA5.10 (antibody, V domains shown)
VH: QVQLVQSGAEVKEPGSAMKVSCKASGGTFSSDAFCWVRQAPGRGLEWMGGIIPVFQTANYGPNFQGRVTISADVYTTTLYLELSGLTSEDTAVYFCARSGDGYNYYFPLWGQGTLVTVSS
VL: DIQMTQSPSTLSGSVGDRVTITCRASQNIGPWLAWYQQESGKAPKLLISRASILESGVPSRFSGTGTGTEFTLTISSLQPDDFATYYCQHYNAYWGTFGQGTKVEIN
B4: FLD129 (antibody, V domains shown)
VH: EVQLVESGGGLVQPGRSLRLSCAASGFTFSDFWMSWVRQAPGKGLEWVANIDQDGNERFYADSVKGRFTISRDNAKNSLYLQMTSLRADDTAVYYCARDGREGYFYGSGSFYNLKGLNWGQGTLLTVSS
VL: QSVLTQPPSVSAAPGQRVTISCSGTSSNIGKNYVSWYQQLPGAAPKLLIYDNDKRPSGIPDRFSGSKSGTSATLGITGLQTGDEADYYCGTWDSSLSVGMFGGGTRLTVL
B5: FLA3.14 (antibody, V domains shown)
VH: EVQLVQSGAEVKKPGESLKISCQASGYSFTSRWIGWVRQMPGKGLEWVGFIYPSDSDVRYSPSFRGQVTISADKSISTAYLQWSSLKASDTAMYFCARLGGNKDYGDYLWYFDLWGRGALVTVSS
VL: EIVMTQSPDTLSVSPGERATLSCRASQSVNRRLAWYQQKPGQAPRLLIHDASTRATGIPARFSGSGSGTEFTLTISSLQSEDFAVYYCQQYDNWLSFGQGTRLEIK
B6: FLD122 (antibody, V domains shown)
VH: QFQLVQSGPEVKKPGTSVKVSCKASGYTSTTYGISWVRQVPGQGLEWMGWINPYNGNPHYGQKFQGRVTLTRDTSTNTAYLEILSLRSDDTAVYYCARDGWGQQLVPYYFDYWGQGTLVTVSS
VL: DIVMTQSPLSLPVTPGEPASISCRASQSLLHSNGYNYLDWYLQKPGQSPQLLIQLGSTRASGVPDRFSGSGSGTDFTLEISRVEAEDVGVYYCMQALQLPLAFGQGTRLEIK
B7: FLD20.19 (antibody, V domains shown)
VH: QVQLVQSGAEVKKPGSSVTVSCKASGGTFSNYGISWVRQAPGQGLDWMGGIIPLFGTANYAQKFQGRVTITADESTSSSNMELSSLRSEDTAVYYCARDVHNYDFLTGYPLHLYGMDVWGQGTTVTVSS
VL: DIQMTQSPSSLSASVGDRVTITCRASQSISTYLNWYQQKPGIPPKLLINVASSLQSGVPSRFSGSGSGTDFTLTISSLQPEDFASYYCQQTYSSPPTFGQGTKVEIK
B8: FLD127 (antibody, V domains shown)
VH: QVQLVESGGGVVQPGRSLRLSCAASGFTFSSYGMHWVRQAPGKGLEWVAVIWYDGDNKYYGDSVKGRFTISRDNSKNTLFLQMNSLRAEDTAVYYCAKDTADHGDYVDLGFFDAWGQGTLVTVSS
VL: DIQMTQSPSSVSASVGDRVTITCRASQDVSTWLAWYQLKPGKAPKLLIYAASSLQSGVPSRFSGSGSGTDFTLTVSSLQPEDFATYYCQQANSFPFTFGPGTKVDIK
B9: FLD84 (antibody, V domains shown)
VH: QVQLQESGPGLVKPSETLSLICAVSGASISSSYWSWIRQPPGKGLEWIGYIYYSGVTKYNPSLKSRVTLSVDTSKNHFSLKLSYVTAADTAVYYCARNLPDIAVVTAVQDATPVWFDPWGPGTLVSVSS
VL: DIQLTQSPSSLSASVGDRVTITCRASQGIITYLNWYQQKPGKAPKLLIYATYSLQNGVPSRFSGSGSGTDFTLTISSLQPEDFATYYCQQSYSSLMFTFGQGTKLDIK

Assays:
[1] = target: hemagglutinin of H5N1 clade 1 strain HK/491/97 (influenza A virus HK/491/97 (H5N1)); assay: cell-based or functional assay
[2] = target: hemagglutinin of H5N1 clade 2.3 strain Anhui/1/05 (influenza A virus Anhui/1/05 (H5N1)); assay: cell-based or functional assay
[3] = target: hemagglutinin of A/Vietnam/1203/04 (H5N1) (influenza A virus A/Vietnam/1203/04 (H5N1)); assay: cell-based or functional assay
[4] = target: hemagglutinin of H5N1 clade 2.2 strain WS/Mong/244/05 (influenza A virus WS/Mong/244/05 (H5N1)); assay: cell-based or functional assay
[5] = target: hemagglutinin of H5N1 clade 1 strain A/Hong Kong/213/03 (influenza A virus A/Hong Kong/213/03 (H5N1)); assay: cell-based or functional assay
[6] = target: hemagglutinin of A/Indonesia/5/05 (H5N1, clade 2) (influenza A virus A/Indonesia/5/05 (H5N1)); assay: cell-based or functional assay
[7] = target: hemagglutinin of H5N1 clade 2.2 strain TY/TY/1/05 (influenza A virus TY/TY/1/05 (H5N1)); assay: cell-based or functional assay
[8] = target: hemagglutinin of H5N1 clade 1 strain VN/1194.04 (influenza A virus VN/1194.04 (H5N1)); assay: cell-based or functional assay
[9] = target: H5 hemagglutinin (HA) of H5N1 influenza A virus, strain not stated (influenza A virus (H5N1), strain not stated); assay: cross-inhibition of binding to HA; competitor: FLD194
[10] = target: H5 hemagglutinin (HA) of H5N1 influenza A virus, strain not stated (influenza A virus (H5N1), strain not stated); assay: cross-inhibition of binding to HA; competitor: FLD20.19
[11] = target: H5 hemagglutinin (HA) of H5N1 influenza A virus, strain not stated (influenza A virus (H5N1), strain not stated); assay: cross-inhibition of binding to HA; competitor: FLA3.14

Binder	Reciprocal neutralising titre of culture supernatant (reciprocal titre) [1]	IC50, neutralisation of retroviral pseudotypes [2] [µg/mL]	IC50, neutralisation of retroviral pseudotypes [3] [µg/mL]	Reciprocal neutralising titre of culture supernatant (reciprocal titre) [3]	IC50, neutralisation of retroviral pseudotypes [4] [µg/mL]	IC50, neutralisation of retroviral pseudotypes [5] [µg/mL]	Reciprocal neutralising titre of culture supernatant (reciprocal titre) [6]	IC50, neutralisation of retroviral pseudotypes [7] [µg/mL]	IC50, neutralisation of retroviral pseudotypes [8] [µg/mL]	Inhibition of binding (%) [9] [%]	Inhibition of binding (%) [10] [%]	Inhibition of binding (%) [11] [%]	IC50, neutralisation of retroviral pseudotypes [6] [µg/mL]
B1	2048	1.8	0.001	1024	0.001	0.0005	< 8	0.001	0.0016	52	0	0	–
B2	20	–	0.048	40	0.011	0.011	406	0.013	0.022	0	100	0	0.059
B3	–	–	0.024	–	–	0.0025	–	–	0.026	100	100	0	–
B4	1450	0.016	0.0017	323	0.003	0.0005	< 8	0.006	0.0012	100	100	0	0.678
B5	–	0.172	0.065	–	0.067	0.033	–	0.076	0.086	100	0	100	0.012
B6	161	0.019	0.005	40	0.006	0.002	362	0.008	0.006	100	100	65	0.004
B7	181	0.104	0.016	181	0.004	0.01	813	0.01	0.013	0	100	0	0.077
B8	102	–	0.013	81	–	0.75	< 8	–	0.019	0	100	0	–
B9	40	0.118	0.042	16	0.03	0.014	102	0.032	0.017	0	100	0	0.03
